Molecular target: MDM2 SWIB domain, Danio rerio (Danio rerio)
Assay: fluorescence polarisation

Row | Substance | Kd [nM] | fold higher affinity than p53TAD (D.rerio)^15-27 [fold] | fold reduced affinity against p53TAD (D.rerio)^17-32 [fold]
1 | alternative p53TAD_(D.rerio)^17-32 (P79734), ending with IIQPP (peptide) | 580 | – | –
2 | p53TAD_(D.rerio)^10-75 (domain or fragment) | 49 | > 70 | –
3 | p53TAD_(D.rerio)^12-55 (domain or fragment) | 180 | – | –
4 | p53TAD_(D.rerio)^17-32 triple Ala mutant (AAAQP) (peptide) | – | – | 7.7

From doi:10.1101/2023.08.24.554616
